This data set can be described thus: label from the status in PepcDB records.
Take “MNVRKFPFAMRAGVAGMLALAALLAGCGSLSGSEMSRRTDADIEVARQRQADEKAELTSPGTYLSLIRRMQEQGMYYASLAHIDAYVQRFGRTPDVLLLRADALRETDQPAAAEADYRAVVEATSALGAGTQGALLNANAWRGLGITAGRQGRFAEAVRRLQLAARGNPTDASTESDLGYALMRAGEVEQARVPLMQAAQLDAANPKIAGNLAIWLDVNDRKEAAAALTAHARLSEAARKAIDEDAARVRSAWRDRRVARDTAPQPVQRAVVANPALMPAAAAPRSSAPLAFQRGRLLDNLEAAQ”: the protein production result is recorded as “failed”.

As for “MKRTLYSGVGLLLVGLLFLAFNLLSSLLLRDQQFDLTQQKLYTFSAGTQEVLDSLDEPLNLYLFFSKSRASDLPALRNYARRVEEVLDLYARRSHGNVRLFVIDPLPFSDDEDRAARFGLQAPPIGPNGEAIYFGLAATNPTDGLQVIPFFSPEEEPLLEYDLSRLVQALAQRERTVVGLMSSLPMTGQAPTDGQPGSRPWAMMDKLYQQFDIRTLGLASTEIPAEVSVLMLVHPRQLSEQTQYAIDQFVLRGGKLLAFVDPLSLADADGGKSSDLAPLLRSWGVQLRPDTLLADASFAMIKPNAERRPERNPTWLHLPGDTFPHDNVLTTGLESLNLASVGLLEPLGGASTRFIPLLHSSAHSMPLSLERFRQSSTEQLNATLVPTGERYVLAAKVEGPATSAFPADRGKQGEGLSDSANIHVLLVADTDLLSNPLWLQEQPGHNEPQVWADNDLFVGNALDYLSGSDALIDLRSRGHTKRPFTRVEALRREAGLRAQEQLNALQQSLNDTDRNLRTLQQSMDAGDQEVTPEMEATLRRFIDDKLRIRQQLRQLQFQLNADVERLGEQVKLANTVLLPALLTLFLLLHWSWRSMRRRRG”, the protein production entry is on record as “failed”.

Regarding “GGRGIIRLIKDNKSLTMKNTEVMLHGSSLAFDASTLEIYAALLNGACLSIIDKEDLIDSQTLKEKLKNDHVNRAFFTTPLFNSLCEQDPSVFNELEQVIIGGDRASNKHLKIVMKNSKKTQFYNGYGPTENTVFTTMHNIQYSELEGDIPIGKA”, the protein production entry is listed as “failed”.

Regarding “MEGTVFTPCLEGMKHVKSDQGEMLTKPFLELCKTILPVIDKFGAAMTLVKSDIGGNITRLEKNYLSDPDKFKYLYTFVQVEIESKIAKGSSSCTNGLLWLTRAMDFLVELFRNLVAHQDWSMPQACADSYQKTLKKWHGWLASSTFSMALKLAPDRKKFMDVISGSGNIQADMERFCAEFGPFLHDNHKFLASVGMDDMKAS”, the protein production entry is listed as “not failed”.

With “TIATSGKLNWGIRESFNNYTNGASKVEDGATLISTNNFEFKLEKATYDAAKERTEAQFRGKIVYLKYCDDMKTFTNCQLDLTIKDPKIVISNEENYVEAVVDSKQYPSGEWYKSNGPVKIANLYPGSATVDSKDNSTEWTNVVSALANPGGVKMFSEFYGENEGLAPLSFSYDG”, the protein production result was “failed”.

In the case of “MSTHVTFDYSKALSFIGEHEITYLRDAVKVTHHAIHEKTGAGNDFLGWVDLPLQYDKEEFARIQKCAEKIKNDSDILLVVGIGGSYLGARAAIEMLNHSFYNTLSKEQRKTPQVLFVGQNISSTYMKDLMDVLEGKDFSINVISKSGTTTEPALAFRIFRKLLEEKYGKEEARKRIYATTDKARGALKTLADNEGYETFVIPDDVGGRFSVLTPVGLLPIAVSGLNIEEMMKGAAAGRDDFGTSELEENPAYQYAVVRNALYNKGKTIEMLINYEPALQYFAEWWKQLFGESEGKDQKGIFPSSANFSTDLHSLGQYVQEGRRDLFETVLKVGKSTHELTIESEENDLDGLNYLAGETVDFVNTKAYEGTLLAHSDGGVPNLIVNIPELNEYTFGYLVYFFEKACAMSGYLLGVNPFDQPGVEAYKKNMFALLGKPGFEELKAELEERLK”, the protein production entry is “not failed”.

Regarding “MLHIDDAMIEDAVTPQAAQEVLHAAFLDFGRGSAAMQRRVRTEAGGVKLSTLGAVIPGQGVAGAKVYTTIKGQFQFVILLFSAADGRPLATCDAGTLTRKRTAACTVLAAGALARPRSSVLGLFGAGTQGAEHAAQLSARFALEAILVHDPYASPEILERIGRRCGVPARMAAPADIAAQADIVVTATRSTTPLFAGQALRAGAFVGAIGSSLPHTRELDDEALRRARAVVVEWREQTLSEAGDLVLAAPDTGLDAKVVELADVLAGRAAARQADEDIVIYKSVGVGLEDVALAGYAYRRLAAQRGWPAP”, the protein production entry was “not failed”.

On to “MGSLRLLADIQGEDLESLYGYAKQLFDGGEIAAARNVYQLLSTLDHWNFDYLLALGLCHQRLGAHNEAVVCFGRAGLIKVDDPRAAFYAGISYRLDGNAEYASKAFKAAINWCGEQIDYQAIKASAVDMLALQQEEVPLEHHHHHH”, for which the protein production result was “failed”.

In the case of “MATVAFHTLGCKVNHYETEAIWQLFKEAGYERKEFESSADVYVINTCTVTNTGDKKSRQVIRRAIRQNPDAVICVTGCYAQTSPAEIMAIPGVDIVVGTQDREKMLGYIKQYQEERQPINGVSNIMKARVFEELDVPAFTDRTRASLKIQEGCNNFCTFCIIPWARGLLRSRDPEEVIRQAQQLVDAGYKEIVLTGIHTGGYGEDMKDYNFAQLLKELDSRVKGLKRIRISSIEASQITDEVIEVLDRSDKIVRHLHIPLQSGSNSVLKRMRRKYTMEFFADRLTKLKKALPGLAVTSDVIVGFPGETEEEFMETYNFIKEHKFSELHVFPYSKRTGTPAARMDGQVDENVKNERVHKLIALSDQLAKEYASDYEGDVLEIIPEEPFTETGEGNLLVGYTDNYIKVVFEGSEDLIGQLVKVKILKAGYPYNKGQFVRVAEDDVRENIRLSS”, the protein production result is on record as “failed”.

Turning to “MKVKKYDQFNESCYQAQLDNGLTVTLLPKAGYHKTYATFTTNYGSIDNTFVPAGSTEMQRFPDGIAHFLEHKMFEKADHDAFQIFGQYGASANAFTSFTKTSYLFSATRHLQDNLMTLLDFVQDPYFTPATVDKEKGIIGQEIEMYDDDPSWRLYFGMIGNLYPNHPLQYDIAGTTESIAKITADDLYAAYRTFYHPENMTLFVVGNFDPDEVLGWITTNQATKKFAAFQPIERKIPETATDGHDIIPYRTIDMPVNRAKSIVGVKGLLPIEAGAAALKYRAAVNVLLELLFGDTSADYLRLYDQGIIDDTFGYDFELQSGFNFVTFSGETDDPAQFDAAIIDVLENWRTAVVGQEAALALVKKEMIGRVVFMANSLEAIANRYDQRLFGTATIFDEPGIIDQLTLADLQTVAEQLLTSQAISEYQIRPQAKS”, the protein production result is recorded as “failed”.

Turning to “MSIPKEQYNFNKLQKRLRRNVGQAIADFNMIEDGDKIMVCLSGGKDSYTLLSILMNLQKSAPIQFSLIAVNLDQKQPGFPEHILPEYLEQLGVEYKIVEENTYGIVKEIIPEGKTTCSLCSRLRRGILYRTATEVGATKIALGHHRDDILETLFLNMFYGGKLKGMPPKLMSDDGKHIVIRPLAYAREKDIERFAQAKNFPIIPCNLCGSQPNLQRQVIKEMLRDWDKRYPGRIETMFRATQNIVPSHLCDTQLFDFANIKQGDEIINGGDLAFDKDDIPTSPILSDDEDERPDFSQARLDVVEVK”, the protein production entry is reported as “not failed”.

“MPSLGCCYIMGGTVLWAIAAELFFESMNLITWLADFSRGHCVGICAALVPSILLWTTICAVLIALGQPRWSVNTAYVATLTVCGVMVLHVASWFSIGVITPVTFILLGLSLSCGSLATLFWRYSSQWQKFCHSGLRETIKAKWPQTLKI”: the protein production entry is “failed”.

Regarding “MTPGEVRRLYFIIRTFLSYGLDELIPKMRITLPLRLWRYSLFWMPNRHKDKLLGERLRLALQELGPVWIKFGQMLSTRRDLFPPHIADQLALLQDKVAPFDGKLAKQQIEAAMGGLPVEAWFDDFEIKPLASASIAQVHTARLKSNGKEVVIKVIRPDILPVIKADLKLIYRLARWVPRLLPDGRRLRPTEVVREYEKTLIDELNLLRESANAIQLRRNFEDSPMLYIPEVYPDYCSEGMMVMERIYGIPVSDVAALEKNGTNMKLLAERGVQVFFTQVFRDSFFHADMHPGNIFVSYEHPENPKYIGIDCGIVGSLNKEDKRYLAENFIAFFNRDYRKVAELHVDSGWVPPDTNVEEFEFAIRTVCEPIFEKPLAEISFGHVLLNLFNTARRFNMEVQPQLVLLQKTLLYVEGVGRQLYPQLDLWKTAKPFLESWIKDQVGIPALVRAFKEKAPFWVEKMPELPELVYDSLRQGKYLQHSVDKIARELQSNHVRQGQSRYFLGIGATLVLSGTFLLVSRPEWGLMPGWLMAGGLIAWFVGWRKTR”, the protein production entry was “failed”.

Consider “MNKEQLQQMRQAPGFVGALDQSGGSTPKALKAYGIQPDAYQSEEEMFDLIHQMRTRMITSPAFATGKIIGVILFERTMRGKIEGMPTADFLWEKRHIVPFLKVDKGLQDEANGVQLMKPFPELGKLCEEAVGYHVFGTKMRSVIKQANEQGIRDIVEQQFQWGKEILSHGLVPILEPEVDIHCPEKAKAEEILKRELLAQLDKMTEPVMLKITIPTVDNFYKEIIEHPMMLRVVALSGGYSREQANELLSRNHGVIASFSRALVEGLSARQTDAEFNAMLEASIEDVYQASIK”, for which the protein production result is reported as “not failed”.

For “NAVHFGAGNIGRGFIGKLLADAEVEVTFADVDVPLVDQLSHKQEYKVKVVGTECKIDTVTHVTAVNSASEDVIDRIVKTDLVTTAVGPNVLDIIAKTIAKGIAKRFEAGNDAPLNIIACENMVRGTTHLKGEVYKHLDKSLHAKADELVGFVDSAVDRIVPPAEAANDDPLEVTVESFSEWIVDEQQFKGDIPNIAGMEKTNN”, the protein production result is “not failed”.

As to “MRLPRQIRLPHLRDIGALLTDSAREWSRHRASSKGAALSLYMVFSLAPMLILVIAVAGAFFGEEAVRSELFSQVRDLTGERGAEVIQTVLASAHESGSGWLAALLSICVLVFSATTAFAELKASLDELWDVKEDKSGLQGLVRSRMLSFGLVLVLALFLLLSLTLNAALGAAKGYYGDLWSTSAFAMAADWLSNLFSFAVVTALFAVVYKLLPSKRIPWLDVIPGAIVTAALFLAGKWGIGLYLERGTAVSAYGAAGSLIALLLWIYYSAQIFFFGAVFTRQFAERFGNLRRAAPA”, the protein production result is reported as “not failed”.

Regarding “CGGCGEDVVGDGAGVVALDRVFHVGCFVCSTCRAQLRGQHFYAVERRAYCEGCYVATLE”, the protein production entry was “not failed”.

With “MLSSGITKAKGMAVVSEGSVPMDQSVGHLPASLLSLVSDPVPKEKVLLPKALRQTLLEKGCHNVRAHGFDAISTQASACSSVAQAGARHTQPSSRARAQVRGHTGDPLASTVSPDLTPDVYVLRVKLEETGELFRVANCRNDMTVRELKEELDLMVGIPFNLQRLHFLDRGILMDDATLKFYDVIPGALISLCIWHYDGWTELVLAAVEGDPSKMSCLGISEDTFYRTANSQHFKGEQWRQWTAQRAFVALYISAHRGHVDAVQYLLGLGANCLAKSPLGRTPLHVVAAMGRTDCVQPLLEHGASIHDRDLKSDTPITIARRLKRGHLEHKMFLLYWMVKSGSRDPDLVGRKALEKSSPGMATRRSTILIS”, the protein production entry is “failed”.

As to “MDEEIDTRKINNSFLRDHNYATEADIISTVEFNPTGELLATGDKGGRVVVFQREQESKNQPHRRGEYNVYSTLLKDWIMLIKTHRKNFRRKGKQLGFKCGSIY”, the protein production result is “failed”.

On to “GVKYTIAVLGPQGSFSEEMALKLVGSRVPLRYCSTTDEIIKLVESGEVDYGLVPIENSVNGTVLPVIDALLNHDVEVFGEAKLEVNHCLVAKRKIELKEIKTIYSHPQAVAQCMGFINNYLPSVAIRYTTSTSDAARMLDDYSAAIMSENAARFYRLHVLRKGIQDLKGRNITRFYLIRRRSG”, for which the protein production entry is on record as “failed”.

For “MAGRRRRPTTDRTIGGLSFSQRELRDLLVAWLALGLAFTFFLEREFRRIVFGQFGGLSGAEIASTFAVSLLTVGVGFLLHELAHKVVAVRFGQIAAFKADYRMLGFAVLGGLVGFLFAAPGAVVHRGRLTAKQHGLIAVAGPVTNLALAVVFLVPFFLTASMGIGGFLRELTEMGLQINLLLAGFNMLPFGPLDGRTVREWSTPVFLAVAVPSILLGVGALFVL”, the protein production result was “failed”.

The values are drawn from a protein production outcome set (Wang et al. 2014).
